In the DeepSol protein solubility set:

Assay: soluble on expression in E. coli; label from the status in PepcDB or PDB records

MGHHHHHHSHSMGVRSMATFVKTADVSILIDPGVSLAPKRYRLPPHRIEIERMNQKWEEIKEMMKKAEVAIITHYHYDHHDPNEVEIFSGKKLLLKHPTEKINRSQKGRAAYFLEQLKSVDVEIDYCDGKSYEFGNTVVELSKPVFHGADSRLGFVVEVYVEDGKSSFLFSSDVEGPNNEEQLAFMLEKSAEVVFIDGPMTYMLGYRFSQKSFESSVENLKRLIAEDVKTLVLDH
soluble on expression in E. coli: soluble

MSLKTNKLINKSFRFKQFSIEEGTCGMPISTDGVLLGSWAFSLSPTTILDIGCGTGLLSLMCAQRFPHAHITALDIEQTAYLAAEHNRQQSPWAERIECQHADILHWQPSKRFAAIICNPPYFNSGETAQHQVRATARHTISLQHQALIERLPQLLEPDGVASFILPKAEGEDFIALARQAGLFVGRYCQVQPTTDKPVHRLLFELHLSPCLPVETRLVIREQQGYSEAFCQLTRDFYLKMSEGHHHHHH
soluble on expression in E. coli: soluble

MNLNYTIASQVNPHVVPFMQSDASRYRKDILSWPQRILRRQGKVISLGIMDFTRERLGNVPPVRRLLDHGYGIVGQRYYGDVNIIAPFNLRQYAYMLQNPRPHLFKLLQQQGERATLEHHHHHH
soluble on expression in E. coli: soluble

MGSDKIHHHHHHMINIFKPRTLTFYLVKSMDVLELLSELVSFNTVNDPNKGIKPSKECPRFIKDQLDSWDIESEIIERSGYYAVYGEIGDGTPRLLFMAHFDVVPVNLEEWETDPFELTIKENKAYGRGSADDKGNVAAVMLALKELSKEEKLNGRVIFAFTGDEEIGGAMAMHIAEKLSKEGKVPKYMINADGIGMKPIIRRRKGFGVEIKVYPRKVKVKGRVREIEFEPKTPVVETRHAAYFLPGVDTHPMVALSHFLRNSNAVAISLDGAFIKGNVIPGKVKLKYVEPGEGEEVEGDLSLTALLKAIVPIVRAPIKAEKYSDYGVSITPNVYSFDGSHVLKVDVRAMSYSKDDIEKTLREVLNFNLPEAELIIKENEKAGYLFTSPDDELVRVTLRILKELGEDVEPIEGPGASDSRYFTPLGVKAIDIGPRGGNIHGPNEYVEVDSLRKMPEIYRRIALSLLL
soluble on expression in E. coli: not soluble

MGSDKIHHHHHHMDKKTYKLLRTLTHLSKDLYNLTLYTVKQHYELNGTFLPFVKAYHMVKDSEPYKLLPSQVAQQTMKIVERNFRSFFHVLKERKKGNYNRPVRPPKYLPKNGHFILIFPYQSFRVKEDRIILTLGKNFAEKYGVKHLEIPLPKNVKGHRIKEIRILPRYNALWFEVEYVYEVLPEERDLDRSKYLAIDLGLDNFATCVSTTGTAFIIEGRGLKSFNRWWNKEKAKLQSQYDKQGVKFGKRMVWLLKKRKNVVNDFMNKAVSYIVNYCLENGIGNVVIGELKGVKQNTDLGRRNNQNFHYIPYGLFKQKLKAKCERYGINYIEVDEAYTSKVDALTLEPIEKREKYLGKRGETWTVPVFRWCFNKC
soluble on expression in E. coli: not soluble

YRDINEIDINMNDPLFTKQWYLINTGQADGTPGLDLNVAEAWELGYTGKGVTIGIMDDGIDYLHPDLASNYNAEASYDFSSNDPYPYPRYTDDWFNSHGTRCAGEVSAAANNNICGVGVAYNSKVAGIRMLDQPFMTDIIEASSISHMPQLIDIYSASWGPTDNGKTVDGPRELTLQAMADGVNKGRGGKGSIYVWASGDGGSYDDCNCDGYASSMWTISINSAINDGRTALYDESCSSTLASTFSNGRKRNPEAGVATTDLYGNCTLRHSGTSAAAPEAAGVFALALEANLGLTWRDMQHLTVLTSKRNQLHDEVHQWRRNGVGLEFNHLFGYGVLDAGAMVKMAKDWKTVPERFHCVGGSVQDPEKIPSTGKLVLTLTTDACEGKENFVRYLEHVQAVITVNATRRGDLNINMTSPMGTKSILLSRRPRDDDSKVGFDKWPFMTTHTWGEDARGTWTLELGFVGSAPQKGVLKEWTLMLHGTQSAPYIDQVVRDYQSKLAMSKKEELEEELDEAVERSLKSILNKN
soluble on expression in E. coli: soluble

MSLDRASHLKMSSEERRAHRDGTVWQLYEWQQRQQFRHGSPTAPICLGSPEFTDQGRSRSMLEVPRSISVPPSPSDIPPPGPPRVFPPRRPHTPAERVTVKPPDQRRSVDISLGDSPRRARGHAVKNSSHVDRRSMPSMGYMTHTVSAPSLHGKSADDTYLQLKKDLEYLDLKMTGRDLLKDRSLKPVKIAESDTDVKLSIFCEQDRVLQDLEDKIRALKENKDQLESVLEVLHRQMEQYRDQPQHLEKIAYQQKLLQEDLVHIRAELSRESTEMENAWNEYLKLENDVEQLKQTLQEQHRRAFFFQEKSQIQKDLWRIEDVTAGLSANKENFRILVESVKNPERKTVPLFPHEGHHHHHH
soluble on expression in E. coli: soluble

MKFAVIVFPGSNCDVDMFHAIKDELGEEVDYVWHDTENLDEYDAILLPGGFSYGDYLRCGAISRFANAMKAVQKAAEQGKPILGVCNGFQILVESGLLPGALIRNENLKFMCRTVQLRVENNETMFTSQYEKDEIINIPIAHGEGNYYCDEATLKQLEENNQIAFRYVENPNGSVSDIAGIVNEKGNVLGMMPHPERAVDELLGGAEGLKVFQSILKQWRETYVVNA
soluble on expression in E. coli: not soluble

LDKRWLQICEDASTLCADRVKEVLEGHGFTGLHVAAAVADTMAVGDTLFLGASNPVRDASLVGMPLGGVDIFAARGAAGIDGTVSQAVGVALDVQHRDATAIRADRTVALMGDVTFLHDVGGLLGARPENLTIVVANDDGCGIFETLEIGAPEFRPSFEQAFGTPHGVHIEAIAQAYGVNYLRAETLPELIEALIDTTDSAGFNIIEAVTTRSTRRDIDKALTL
soluble on expression in E. coli: not soluble

MFPCLCTLKILTFQPKFQKIHDEMKALKAAGKQDEFAKKFVTKDAIFMGPLHEPANVTEAAKFAKSEMMAAVSKGEFNITIDEITPIGDVVIERCTIHAKVASGDKTGWSLCVWVKDGGAWKIRNSCTTFKVVPSA
soluble on expression in E. coli: not soluble

MSLKSLKAKFRKSDTNEWNKNDDRLLQAVENGDAEKVASLLGKKGASATKHDSEGKTAFHLAAAKGHVECLRVMITHGVDVTAQDTTGHSALHLAAKNSHHECIRRLLQSKCPAESVDSSGKTALHYAAAQGCLQAVQILCEHKSPINLKDLDGNIPLLLAVQNGHSEICHFLLDHGADVNSRNKSGRTALMLACEIGSSNAVEALIKKGADLNLVDSLGYNALHYSKLSENAGIQSLLMSKISQDADLKTEGHHHHHH
soluble on expression in E. coli: soluble

MSQEIRQNEKISYRIEGPFFIIHLINPDNLNALEGEDYIYLGELLELADRNRDVYFTIIQSSGRFFSSGADFKGIAKAQGDDTNKYPSETSKWVSNFVARNVYVTDAFIKHSKVLICCLNGPAIGLSAALVALCDIVYSINDKVYLLYPFANLGLITEGGTTVSLPLKFGTNTTYECLMFNKPFKYDIMCENGFISKNFNMPSSNAEAFNAKVLEELREKVKGLYLPSCLGMKKLLKSNHIDAFNKANSVEVNESLKYWVDGEPLKRFRQLGSKQRKHRL
soluble on expression in E. coli: soluble

MGSDKIHHHHHHMITYFELKNFRSFSNITLDLRKAYGKPKKVVFIYGENGSGKSNLMSSFLFLLQTLNTFKNQVELKDMPEYKSNLFESIKDDKIRHQLLQQILHMQFITLSNLIDEYKMLGNEKNMSTKFGFRIEESDGSYFMEFSKDKIIKEELRYQINEREGTVFSISKNQITLSPTVFLDLDYKKELQDNIEKYWGKHTFMAILCNEIETKNSNYIKAKINKNLLNVIWEMRGLSVWCKECHGETARISIPLKFMRQLDEGSVKDQNNKELKLCETALNTFFTQLYSDIKAVHYVFTPNENDYSYELCFKKLIDGKLIDIPISLESTGTRKLLEIFPMLFGSVAGTPVFVDEIDSGIHDVLMKNLLERLLESIEGQLIATTHNTLLMESLPTENTYIIRVNATGNKSIDCVANYRQRTQKTNSMRNKYLRGDYDGIPYTGYFDFQELVEDVLDNIPSSDNEDGDEA
soluble on expression in E. coli: not soluble

MMHYDGMYYINEEEVRSNLTMKDTIDAIREAFEEYRAGRASSNTRVRTFSEGSVLNTMPASMEKYHILGHKTYSASRNGARFVVTLFDSRNNDLIAIVEANRLGQMRTGAVTAYATSILHPHVENFTIIGSGFQAETQLEGMITVSHPQSIRVYSRNYDHAKDFASRMSKQFGVDIRPVDNAEAALSDADTVSSITNSTSPVILRKYLGDEYHVNLAGSNYMNRREAEYEVLHDADLVVTEHYDQSMVESAEISEYVKFGGKPVELREIAGRYGEFSGLRRTVFKSMGIGLEDIATAYRVLRNLGIA
soluble on expression in E. coli: soluble

MRGSHHHHHHGSENLYFQSGAMEIREQLNLGGIVNAQNAQLSNCSDGAAQLESCGTAPDLKGITGWLNTPGNKPIDLKSLRGKVVLIDFWAYSCINCQRAIPHVVGWYQAYKDSGLAVIGVHTPEYAFEKVPGNVAKGAANLGISYPIALDNNYATWTNYRNRYWPAEYLIDATGTVRHIKFGEGDYNVTETLVRQLLNDAKPGVKLPQPSSTTTPDLTPRAALTPETYFGVGKVVNYGGGGAYDEGSAVFDYPPSLAANSFALRGRWALDYQGATSDGNDAAIKLNYHAKDVYIVVGGTGTLTVVRDGKPATLPISGPPTTHQVVAGYRLASETLEVRPSKGLQVFSFTYG
soluble on expression in E. coli: soluble

MPMNNFLDEFNLFDSIITMMKNDPCCVEDYEPIVENLNRIFQRTFNDEEHRKSMANSQLFWERLRDTLEAMLLPASLNENSSIPYTRTVRGLILMMRNLAAENQEIPQKLLLQNLVIRGFLHATSEYVVDTPLIKHLYIACLTCLFNIQQNYSTVDMTTFPALLQFLQYPYGIKLEDGEEEEHFWLPYLFLFKTYLNNDEFSNEFFRDNDTPQKDYYCVRDRIFFDIVTAKFIQDQENSFLIEKGRNYLDDSKLEITSIDLSVLECISKSLTTASFGKYLNGLEERQPGKFTTLLQILQLVVTSKEDWNTYELTAIMSWCYPILQRLACKDIPAFFNKSCNDYAPSVAIQLHSTLLSCLDIISDLCKFNHVRKFLISYDSVKILVSLLDTFQKNLLRINFLKGNGDTVNEIKITDHEGNKIEDRLLIFNRVNTNESFIRADNFPHCKLVIIEILASLVYAHPEIQDQIRELGGLALILSNCVIDDNDPFIKERSIVCLKFLLKNNAKNQEYVKKMEAQDVVQDDALSKAGFEISVEKGGKVRLVSKEEDPGNENSEIISIDED
soluble on expression in E. coli: not soluble

MGSDKIHHHHHHMPDLTTAPDAEILMAQPRGFCAGVDRAIEIVERALTRFGAPIYVRHEIVHNAYVVADLRRKGAVFVRELDEVPAGATVIFSAHGVSKDVRAEAASRGLNVFDATCPLVTKVHVEVGKMRAEGCEIVMIGHRGHPEVEGTMGQAEGGMLLVESVADVAGLVVADPARLAYVTQTTLSVDETLEIVAALKARFPLIREPKKQDICYATQNRQDAVKFMAPQVDVVIVVGSPNSSNSNRLRELAARLGVPAYMVDAPDQVHPEWVAGKRRIGLTAGASAPEELAQSIVARLRELGAGHVRALAGIEENMAFPLPRGLQAAATVGVTA
soluble on expression in E. coli: not soluble

MCRMFLCHGNFGEDAGRLFLALSETAKNDPLLVKAGSTWTSHSDGWGMAMLSDGSIRFEKHSRPVYEDSVPTIISSGTVLAHARKASPGEPLGNAFSHPFYAEDERYIVLLAHNGSLDKHRIANCDPKCYDRNTDSGLFLSYIMTFPGTVKERFERAIFESLKNGVFGKLTNLLVVALDKFTMIEERLYFSHNASRSEYGDLYLVNGRGWTGVFSSSILMSAHFPAYVSKSKVENDTVMDLP
soluble on expression in E. coli: not soluble

MFNFANFYQLIAQDTRLQPWLNVLPQQLTDWQNAEHGDFGRWLKALNKIPEGSPDQVDIKNSVTISNDTPFHEGELKKLENLLRTFHPWRKGPYTVHGIHIDTEWRSDWKWDRVLPHISPLKNRSVLDVGCGNGYHMWRMLGEGARLCVGIDPSHLFLIQFEAIRKLMGGDQRAHLLPLGIEQLPKLEAFDTVFSMGVLYHRRSPLDHLIQLKDQLVSGGELVLETLVIEGDENAVLVPTSRYAQMRNVYFFPSAKALKVWLELVGFEDVHIVDENVTSVDEQRTTDWMTHNSLPDYLDPNDPSKTVEGYPAPRRAVLVARKP
soluble on expression in E. coli: not soluble
